Results reported in the RNAGym collection of RNA variant scans (doi:10.7554/elife.80360).

B1: HDV Ribozyme (parent)
chain: GGCCGGCAUGGUCCCAGCCUCCUCGCUGGCGCCGGCUGGGCAACAUUCCGAGGGGACCGUCCCCUCGGUAAUGGCGAAUGGGACCCA

Variants of: B1
Test: self-cleavage, relative activity (ratio to wild type); higher = more cleavage; co-transcriptional

Row | Variant | self-cleavage
1 | G11U C26A | 0.689
2 | G11U C30A | 0.128
3 | U12C G54U | 0.415
4 | U12A G67U | 0.256
5 | U12A G67A | 0.383
6 | U12A G31U | 0.0811
7 | U12A G31A | 0.125
8 | U12C G31C | 0.123
9 | U12C G31A | 0.237
10 | U12C G31U | 0.0386
11 | G11U C58A | 0.326
12 | U12C C63G | 0.123
13 | G11U G73U | 0.111
14 | U12A A45U | 0
15 | U12A A45G | 0.277
16 | U12A A45C | 0
17 | G11U A87U | 0.199
18 | U12A G38U | 0.0277
19 | G11U G31C | 0.146
20 | U12A C13G | 0
21 | U12A C13A | 0.0378
22 | G11U A77G | 0.283
23 | G11U C49U | 0.386
24 | G11U C49G | 0.166

Row | Variant | self-cleavage
25 | U12A C21U | 0.0831
26 | U12A C21G | 0.237
27 | U12G A51C | 0.415
28 | U12G A51G | 0.867
29 | G11U G17A | 0.45
30 | G11U G17U | 0.308
31 | G11U G17C | 0.203
32 | U12A A51U | 0.277
33 | U12A A51C | 0.237
34 | G11U C62A | 0.487
35 | G11U C62G | 0.151
36 | U12A U23C | 0.237
37 | U12C G29C | 0.0462
38 | U12C G29A | 0.0415
39 | U12C G29U | 0.0346
40 | U12A A16G | 0.383
41 | U12A A16U | 0.32
42 | U12A G73C | 0.314
43 | U12A G73A | 0.123
44 | U12C A70C | 0
45 | U12A U27G | 0.237
46 | U12A U27C | 0.35
47 | G11U U47C | 0.156
48 | U12A C44G | 0.166

Row | Variant | self-cleavage
49 | U12A C30A | 0.0652
50 | U12A C30G | 0.131
51 | U12C C24U | 0.0791
52 | U12C C24G | 0.119
53 | U12C C24A | 0.232
54 | G11U G76A | 0.292
55 | G11U C75A | 0.0231
56 | G11U C75G | 0.0264
57 | G11U C41G | 0.204
58 | U12A U37A | 0
59 | U12A C66U | 0.317
60 | U12A G34U | 0.142
61 | G11U U72A | 0.287
62 | G11U U72G | 0.145
63 | U12C G81U | 0
64 | U12C G81A | 0.095
65 | G11U G29U | 0.0536
66 | G11U G29A | 0.158
67 | G11U G29C | 0.0231
68 | U12G A43C | 0.431
69 | U12A G59U | 0.214
70 | U12A C49G | 0.115
71 | U12C G17C | 0.145
72 | U12C A83U | 0.128

Row | Variant | self-cleavage
73 | U12C U65G | 0.323
74 | U12C U65C | 0.492
75 | U12C U65A | 0.489
76 | G11U G59A | 0.499
77 | G11U G59U | 0.41
78 | G11U G59C | 0.297
79 | U12C G52U | 0.35
80 | U12C G52A | 0.554
81 | G11U C63A | 0.228
82 | G11U C63U | 0.364
83 | U12A G28A | 0.0314
84 | U12A G28U | 0.181
85 | G11U G25C | 0.104
86 | G11U G25A | 0
87 | G11U U20C | 0.0248
88 | G11U U60G | 0.381
89 | G11U G81A | 0.0623
90 | U12C A77C | 0.237
91 | U12A C24U | 0.135
92 | U12A C24G | 0.0437
93 | G11U G39A | 0.128
94 | G11U G28C | 0.0992
95 | U12A G25U | 0.133
96 | U12A G25C | 0.17

Row | Variant | self-cleavage
97 | G11U C84U | 0.292
98 | G11U C84A | 1.12
99 | U12A U79G | 0.302
100 | U12A U79C | 0.166
101 | G11U C57U | 0.282
102 | U12A A77U | 0
103 | U12A A77G | 0.151
104 | U12A A77C | 0.0755
105 | G11U G67C | 0.262
106 | U12C A43G | 0.0437
107 | U12A U60C | 0.391
108 | U12A U60A | 0.453
109 | U12C A78C | 0.162
110 | U12C A78U | 0
111 | U12C C22U | 0.231
112 | U12C C22A | 0.115
113 | G11U C36U | 0.138
114 | G11U C36G | 0.0615
115 | U12A C85U | 0.481
116 | U12A C85G | 0.208
117 | U12A C85A | 0.383
118 | U12A C18A | 0.0604
119 | U12A C18U | 0.217
120 | G11U C18G | 0.158

Row | Variant | self-cleavage
121 | G11U C22G | 0
122 | G11U C22A | 0.0179
123 | G11U C22U | 0.103
124 | U12A A71G | 0
125 | U12A A71C | 0.262
126 | U12A A71U | 0.262
127 | U12C C64U | 0.665
128 | U12C C64A | 0.344
129 | U12A C86A | 0.623
130 | U12A C64G | 0.437
131 | G11U A78G | 0.106
132 | G11U A78C | 0.02
133 | U12C C15A | 0.482
134 | U12C C15U | 0.147
135 | U12C C15G | 0.147
136 | U12A G76A | 0.499
137 | U12A G76U | 0.906
138 | U12A G76C | 0.443
139 | U12A U20A | 0.101
140 | U12A U20C | 0
141 | U12A U20G | 0
142 | U12C C44G | 0
143 | U12C C44A | 0.252
144 | U12A C26G | 0.609

Row | Variant | self-cleavage
145 | G11U G54C | 0.57
146 | G11U G54A | 0.313
147 | G11U C21G | 0.086
148 | G11U A71U | 0.158
149 | U12G A45C | 0.399
150 | U12C A45U | 0.196
151 | U12C A45G | 0.277
152 | G11U G50U | 0.583
153 | G11U C14A | 0.0707
154 | G11U U69C | 0.161
155 | G11U U69A | 0.317
156 | G11U U69G | 0.309
157 | G11U U46G | 0.285
158 | G11U U46A | 0.18
159 | U12A G55C | 0.201
160 | U12G A77G | 0.443
161 | U12G A77U | 0.443
162 | U12A A78G | 0.237
163 | U12A A78C | 0.123
164 | U12C C26A | 0.831
165 | U12C C26U | 0.776
166 | G11U C33G | 0.0594
167 | G11U C33U | 0.0997
